Data: patent CN107236025A, “与cd56分子特异性结合的多肽及其应用” (GUANGZHOU YIDAI PHARMACEUTICAL TECHNOLOGY Co Ltd, priority 2017, dated 2017)

B1: SSVYCKQTNKKKRKERKRDTGMKGDIIGTGVNDLAPLRGPIKASTMVAVAQDMAGTGADFLFL (peptide)
chain: SSVYCKQTNKKKRKERKRDTGMKGDIIGTGVNDLAPLRGPIKASTMVAVAQDMAGTGADFLFL

What was measured:
U2 OS细胞 = assay: Cytotoxicity test (CCK8) on U2 OS cells; assay type: cell-based; conditions: 0.1-100 μg/ml peptide, 72 h; versus medium without peptide; Fig. 5
[1] = In vivo metabolism and distribution in mouse by fluorescence imaging; set-up: species or system 小鼠
[2] = female mouse, tail vein, 400 ul of 1 mg/ml, Fig. 7

Molecule | Toxicity to U2 OS cells (cell viability, CCK8) (U2 OS细胞) | Distribution of peptide fluorescence after 1 h [1, 2] | Distribution of peptide fluorescence after 3.5 h [1, 2] | Route of metabolism ([1]; female mouse, tail vein, concluded from fluorescence imaging) | Peptide residue in liver, spleen, lung and kidney (frozen sections, confocal) ([1]; mouse, after 3.5 h of imaging, Fig. 8)
SSVLTKWYLVCWSLGESISNERRKNFHLVGHWGCLRKLTFVVE [7号多肽] | 没有毒性作用 | – | – | – | –
B1 | 没有毒性作用 | 逐渐富集到小鼠肝、肾和肠 | 只留存于肝脏和肠腔 | 主要经过肝脏代谢 | 各个脏器均有少量的多肽残留
